In article PMC6778148:

Molecular target: fluorescein-labelled divalent stargazin-derived peptide ligand
Test: fluorescence polarisation; direct titration: 50 nM fluorescein-labelled stargazin ligand (divalent or monovalent) against increasing concentrations of PDZ domains; apparent KD

Substance: SAP97 tandem PDZ domains 1 and 2 (SAP97-12), from pET-NO (domain or fragment)
- Kd: 199 nM
